Reference: patent EP2009026A1 (ThromboGenics N.V., dated 2008)

What was measured:
[1] = target: T1, GST fusion protein of VPAC1 extracellular loop 2 (human); assay: western blotting of GST-loop fusion proteins
T1 construct: also called isolated extracellular loop 2 of the VPAC1 receptor; not shown: GST (glutathione-S-transferase) fusion partner
T1 chain: IHFEDYGCWDTINSSLWW

[2] = target: T2, GST-fused VPAC1 variant 4-2 (amino acids 231-457 of SEQ ID NO:15) (human, UniProt P32241 231-457); assay: western blotting of GST-fused VPAC1 deletion variants
T2 construct: not shown: By analogy w [CUT]
T2 sequence: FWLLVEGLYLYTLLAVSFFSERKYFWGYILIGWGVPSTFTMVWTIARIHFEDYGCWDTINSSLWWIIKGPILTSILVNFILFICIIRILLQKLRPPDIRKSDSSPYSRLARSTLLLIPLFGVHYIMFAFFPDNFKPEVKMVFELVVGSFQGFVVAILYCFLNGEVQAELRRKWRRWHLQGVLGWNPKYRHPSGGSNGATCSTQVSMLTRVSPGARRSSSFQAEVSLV

[3] = target: T3, GST-fused VPAC1 variant 3-2 (amino acids 123-457 of SEQ ID NO:15) (human, UniProt P32241 123-457); assay: as above
T3 construct: not shown: By analogy w [CUT]
T3 sequence: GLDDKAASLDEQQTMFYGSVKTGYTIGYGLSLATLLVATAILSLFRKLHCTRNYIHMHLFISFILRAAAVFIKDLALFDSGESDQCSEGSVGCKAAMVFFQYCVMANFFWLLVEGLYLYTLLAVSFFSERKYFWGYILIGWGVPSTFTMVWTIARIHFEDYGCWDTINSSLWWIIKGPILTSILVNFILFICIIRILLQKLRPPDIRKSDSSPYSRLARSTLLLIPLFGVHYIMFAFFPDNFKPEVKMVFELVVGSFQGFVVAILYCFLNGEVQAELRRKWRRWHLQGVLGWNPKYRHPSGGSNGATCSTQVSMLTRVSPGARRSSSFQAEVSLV

[4] = target: T4, murine VPAC1 receptor on mouse bone marrow-derived CD41/61+ megakaryocytes (mouse, UniProt P97751 31-459); assay: immunoblot of mouse bone marrow-derived megakaryocytes
T4 construct: whole, on cells; Endogenous receptor; It was detected by immunoblot of megakaryocytes and targeted on living megakaryocytes in the cAMP assay; also called VPAC1 receptor on the murine megakaryocytes
T4 sequence (looked up): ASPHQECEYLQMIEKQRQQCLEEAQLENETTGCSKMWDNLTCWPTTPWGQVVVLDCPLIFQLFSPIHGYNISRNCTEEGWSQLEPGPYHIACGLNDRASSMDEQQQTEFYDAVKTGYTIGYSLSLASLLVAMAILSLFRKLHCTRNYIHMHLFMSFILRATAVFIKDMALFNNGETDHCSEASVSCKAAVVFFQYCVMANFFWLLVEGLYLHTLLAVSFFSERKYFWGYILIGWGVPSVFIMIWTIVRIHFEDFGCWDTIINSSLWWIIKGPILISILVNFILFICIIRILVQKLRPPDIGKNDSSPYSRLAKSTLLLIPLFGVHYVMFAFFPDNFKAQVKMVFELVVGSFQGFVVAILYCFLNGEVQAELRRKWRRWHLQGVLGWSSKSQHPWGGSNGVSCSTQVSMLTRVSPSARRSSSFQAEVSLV

[5] = target: T5, GST-VPAC1 fusion protein (human VPAC1, full length) (human, UniProt P08515 1-218 = GST); assay: SPR (BIAcore 1000), GST-VPAC1 immobilized; KA = 1/KD; first batch
T5 construct: also called recombinant VPAC1

[6] = target: T5, GST-VPAC1 fusion protein (human VPAC1, …); assay: SPR (BIAcore 1000), GST-VPAC1 immobilized; KA = 1/KD; second batch
[7] = target: T5, GST-VPAC1 fusion protein (human VPAC1, …); assay: SPR (BIAcore 1000), GST-VPAC1 immobilized on CM5 chip, antibody injected, 1:1 Langmuir fit; first batch
[8] = target: T5, GST-VPAC1 fusion protein (human VPAC1, …); assay: SPR (BIAcore 1000), GST-VPAC1 immobilized on CM5 chip, antibody injected, 1:1 Langmuir fit; second batch
[9] = target: T5, GST-VPAC1 fusion protein (human VPAC1, …); assay: SPR (BIAcore 1000), GST-VPAC1 immobilized; KA = 1/KD
[10] = target: T5, GST-VPAC1 fusion protein (human VPAC1, …); assay: SPR (BIAcore 1000), GST-VPAC1 immobilized on CM5 chip, antibody injected, 1:1 Langmuir fit

B1: murine monoclonal anti-VPAC1 antibody 23A11 (antibody, V domains shown)
VH: EVQLQESGPSLVKPSQTLSLTCSVTGDSITSGYWNWIRKFPGNKLEYMGYIRYSGSTYYSPALKSRFSITRDTSKNQYYLQLNSVTTEDTATYYCSNWAYWGQGTLVTVSA
VL: DIVITQDELSNPVTSGESVSISCRSSKSLLYKDGKTYLNWFLQRPGQSPQLLIYLMSTRASGVSDRFSGSGSGTDFTLEISRVKAEDVGVYYCQQLVEYPLTFGAGTKLELK
notes: Murine hybridoma antibody (BALB/c mice); also called murine 23A11; anti-VPAC1 receptor antibody 23A11
[1]
  binding result: binds
[2]
  binding result: binds
[3]
  binding result: binds
[4]
  binding result: binds
[5]
  Ka: 3.54e+07 M⁻¹
[6]
  Ka: 5.04e+07 M⁻¹
[7]
  Kd: 0.0283 µM
[8]
  Kd: 0.0199 µM

B2: humanized 23A11 antibody (isotype not stated in Example 8) (antibody, V domains shown)
VH: EVQLQESGPGLVKPSQTLSLTCTVSGDSITSGYWNWIRKHPGKGLEYMGYIRYSGSTYYSPSLKSRFTISRDTSKNQYSLKLSSVTAADTATYYCSNWAYWGQGTLVTVSA
VL: DIVITQSPLSLPVTPGEPVSISCRSSKSLLYKDGKTYLNWFLQRPGQSPQLLIYLMSTRASGVSDRFSGSGSGTDFTLKISRVEAEDVGVYYCQQLVEYPLTFGQGTKLEIK
notes: The constant regions are human IgG1 or IgG4; also called humanize 23A11 antibody; rhu23A11
[9]
  Ka: 1.02e+08 M⁻¹
[10]
  Kd: 0.00982 µM
